From publication PMC5994690, “Virulence Associated Gene 8 of Bordetella pertussis Enhances Contact System Activity by Inhibiting the Regulatory Function of Complement Regulator C1 Inhibitor” (Frontiers in Immunology, 2018) come the findings set out here.

The chains are these.
B1: Recombinant his-tag passenger domain of virulence associated gene 8 (Vag8) of Bordetella pertussis (domain or fragment)
chain: VTAAQRIDGGAAFLGDVAIATTKASEHGINVTGRTAEVRVTGGTIRTSGNQAQGLRVGTENAPDNTALGASVFLQNLIIETSGTGALGVSVHEPQGGGGTRLSMSGTTVRTRGDDSFALQLSGPASATLNDVALETAGQQAPAVVLWQGAQLNAQGLVVQVNGAGVSAIHAQDAGSFTLSGSDITARGLEVAGIYVQEGMQGTLTGTRVTTQGDTAPALQVEDAGTHVSMNGGALSTSGANSPAAWLLAGGSAQFRDTVLRTVGEASHGVDVAAHSEVELAHAQVRADGQGAHGLVVTRSSAMVRAGSLVESTGDGAAALLESGHLTVDGSVVHGHGAAGLEVDGESNVSLLNGARLSSDQPTAIRLIDPRSVLNLDIKDRAQLLGDIAPEAQQPDGSPEQARVRVALADGGTWAGRTDGAVHTVRLLDRGVWTVTGDSRVAEVKLEGGTLAFAPPAQPKGAFKTLVATQGISGTGTIVMNAHLPSGTADVLVAPQGFGDRQVLVVNNTDDGTESGATKVPLIEDEQGHTAFTLGNMGGRVDAGARQYELTASEAQADKARTWQLTPTNEL
B2: Full length complement regulator C1 inhibitor (C1-INHFL), serum-derived (natural protein, UniProt P05155 23-500, looked up)
chain: NPNATSSSSQDPESLQDRGEGKVATTVISKMLFVEPILEVSSLPTTNSTTNSATKITANTTDEPTTQPTTEPTTQPTIQPTQPTTQLPTDSPTQPTTGSFCPGPVTLCSDLESHSTEAVLGDALVDFSLKLYHAFSAMKKVETNMAFSPFSIASLLTQVLLGAGENTKTNLESILSYPKDFTCVHQALKGFTTKGVTSVSQIFHSPDLAIRDTFVNASRTLYSSSPRVLSNNSDANLELINTWVAKNTNNKISRLLDSLPSDTRLVLLNAIYLSAKWKTTFDPKKTRMEPFHFKNSVIKVPMMNSKKYPVAHFIDQTLKAKVGQLQLSHNLSLVILVPQNLKHRLEDMEQALSPSVFKAIMEKLEMSKFQPTLLTLPRIKVTTSQDMLSIMEKLEFFDFSYDLNLCGLTEDPDLQVSAMQHQTVLELTETGVEAAAASAISVARTLLVFEVQQPFLFVLWDQQHKFPVFMGRVYDPRA
modifications: glycosylated (58 kDa protein/28 kDa sugar by SEC-MALS)
notes: Purified from serum (Complement Technology/Complement Technologies, Tyler, TX); source: bought: Complement Technology (serum-derived)

The target of test [1] is B2. As to the kind of experiment: SPR; Biacore T200; Vag8 passenger domain immobilised by amine coupling on a CM5 chip; C1-INH 2.5-160 nM injected at 30 µL/min; 25°C, 10 mM HEPES pH 7.4, 150 mM NaCl, 3 mM EDTA, 0.005% P20; dissociation 300 s. The following applies: both partners purified. In general terms: SPR reads the build-up and loss of mass on a sensor chip optically.

Test [2] deals with B1. In words: SEC-MALS; S200 increase 10/300 column, 50 mM Tris pH 7.5, 150 mM NaCl, 0.4 mL/min; individual proteins and the complex. The following applies: both partners purified.

By Kd is commonly meant the concentration at which binding is half-saturated. High values mean a looser complex, low ones a tighter complex. On to B1, for which, in test [1], the Kd was at most 1 nM. For orientation: stoichiometry N means a count of units in the complex or per binding partner. On to B2, for which the “stoichiometry N” value in test [2] turned out to be 1.
